Measured values: patent publication US20240252689A1, “POLY-ADP RIBOSE (PAR) TRACKER OPTIMIZED SPLIT-PROTEIN REASSEMBLY PAR DETECTION REAGENTS” (THE BOARD OF REGENTS OF THE UNIVERSITY OF TEXAS SYSTEM, priority 2021, published 2024)
One block for each molecule: values may come before it.

Experiments:
PARylated PARP-1 = PARylated PARP-1 (Homo sapiens, UniProt P09874); test: In vitro ADP-ribosylation assay with ARBD-ddGFP pairs, recombinant PARP-1; type: biochemical; details: ARBD fused to ddGFP-A/B, recombinant proteins
Chain of PARylated PARP-1 (P09874 whole entry, the tested form may be a part): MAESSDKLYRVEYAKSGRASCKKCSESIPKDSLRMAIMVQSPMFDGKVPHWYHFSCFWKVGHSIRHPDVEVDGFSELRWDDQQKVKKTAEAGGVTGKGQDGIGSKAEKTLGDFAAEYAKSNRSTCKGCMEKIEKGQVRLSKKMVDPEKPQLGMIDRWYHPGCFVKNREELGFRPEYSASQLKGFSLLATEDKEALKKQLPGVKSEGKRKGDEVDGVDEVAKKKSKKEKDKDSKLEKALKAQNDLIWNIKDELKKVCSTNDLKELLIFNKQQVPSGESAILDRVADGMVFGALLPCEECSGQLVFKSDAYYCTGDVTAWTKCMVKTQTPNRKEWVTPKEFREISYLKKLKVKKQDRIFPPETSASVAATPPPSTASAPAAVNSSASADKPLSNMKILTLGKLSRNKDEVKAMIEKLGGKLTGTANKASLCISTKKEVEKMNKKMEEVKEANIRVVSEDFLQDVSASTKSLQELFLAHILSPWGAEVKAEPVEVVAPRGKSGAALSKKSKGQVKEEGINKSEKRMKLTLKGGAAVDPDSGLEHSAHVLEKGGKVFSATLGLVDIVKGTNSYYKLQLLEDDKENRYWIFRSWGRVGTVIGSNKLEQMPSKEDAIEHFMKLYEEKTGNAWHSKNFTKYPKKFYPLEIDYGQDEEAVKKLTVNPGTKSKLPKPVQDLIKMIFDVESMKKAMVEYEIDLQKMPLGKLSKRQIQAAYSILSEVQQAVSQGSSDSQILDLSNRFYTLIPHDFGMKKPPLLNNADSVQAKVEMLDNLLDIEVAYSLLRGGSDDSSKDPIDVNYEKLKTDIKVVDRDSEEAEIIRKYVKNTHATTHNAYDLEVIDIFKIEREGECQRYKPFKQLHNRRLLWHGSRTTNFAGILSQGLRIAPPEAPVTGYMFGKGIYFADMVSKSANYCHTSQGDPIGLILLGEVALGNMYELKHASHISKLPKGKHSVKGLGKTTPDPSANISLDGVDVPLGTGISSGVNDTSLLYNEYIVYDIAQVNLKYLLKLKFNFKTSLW
Excerpt: Dimerization-dependent GFP is a genetically encoded sensor that was initially developed to study protein interactions. In this system, a pair of a quenched GFP (ddGFPA) and a non-fluorogenic GFP (ddGFPB) form a heterodimer that can result in improved fluorescence. In this example, a ddGFP-based fluorescence sensor (fluorescent PAR-Trackers or PAR-T) was designed to allow for live cell imaging, with high signal-noise ratio. To achieve this, the various ADPR reader domains (ARBDs) were fused to ddGFP-A/B and purified as recombinant proteins (FIG. 1A, FIG. 1B, FIG. 6A). In vitro ADP-ribosylation assays were performed using recombinant PARP-1 (to detect PAR) and PARP-3 (to detect MAR) specifically (FIG. 6B and FIG. 6C). […] These reagents recognized PARylated-PARP-1 but not MARylated PARP-3, or the precursors of ADPR (FIG. 1C). Accordingly, the utility of these reagents was further tested in in vitro PARP-1 PARylation reactions with increasing concentrations of NAD+(FIGS. 6F and 6G) and increasing time of reaction (FIG. 1D and FIG. 1E). Similarly, degradation of PAR chains by ARH3 was detected in a time (FIG. 1F and FIG. 1G) and dose (FIG. 6H) dependent way. Further, in vitro reactions were performed by incubating the recombinant PAR-T sensors and lysates from Hela cells treated with H2O2 to induce DNA damage and activate PARP-1.

PARP-1 activation = test: Live cell imaging with ddGFP PAR-T after H2O2-mediated PARP-1 activation; type: cell-based; details: cells treated with H2O2, compared to ddGFP alone
Method: Cells were treated with various inhibitors as described herein. For inhibition of nuclear PARPs, cells were treated with PJ-34 ([…]; Enzo, ALX-270) or Olaparib (20 µM; MedChem Express, HY-10162) for 2 hours. For inhibition of PARG, cells were treated with PDD 00017273 (20 µM; MedChem Express, HY-108360) for 2 hours. For UV-induced DNA damage, the cells were harvested 15 minutes after treatment with 50 mJ/cm2 UV irradiation.
Having confirmed the specificity of the PAR-T sensors, their utility in live cell imaging was then tested. PAR-T sensors were expressed in Hela cells in a doxycycline-dependent manner and live cell imaging performed after subjecting the cells to H2O2-mediated PARP-1 activation (FIG. 7A). This PAR-T construct also expresses mCherry with nuclear localization signal (NLS) to illuminate the nuclei and act as a control for variability in expression of the constructs (FIG. 7A). […] Using the WWE-based ddGFP PAR-T construct, accumulation of PAR after H2O2-treatment was detected in real time.
Next, a set of assays was performed to compare the performance of the PAR-T sensors to conventional PAR detection reagents (WWE-Fc and PAR antibody) in a variety of assays. […]

recognizing PARylated PARP-1 (fluorescence) (PARylated PARP-1; listed as WWE domain): worked better | recognizing PARylated PARP-1 (fluorescence) (PARylated PARP-1; listed as WWE domain from RNF146): performed well
B1: PAR-T ddGFP: WWE domain from RNF146 fused to dimerization-dependent GFP monomers ddGFP-A and ddGFP-B (protein)
chain 1: MGHHHHHHHHHHSSGHIDDDDKHMLEGNGEYAWYYEGRNGWWQYDERTSRELEDAFSKGKKNTEMLIAGFLYVADLENMVQYRRNEHGRRRKIKRDIIDIPKKGVAGLRLEFSTGHGTGSTGSGSSGTASSESTGSSMASKSEEVIKEFMRFKVRLEGSMNGHEFEIEGEGEGRPYEGTQTAKLKVTKGGPLPFAWDILSPLIMYGSKMYVKHPADVPDYMKLSFPEGFKWERVMHFEDGGLVTATQDSSLQDGTLIYKVKMRGTNFPPDGPVMQKKTLGWDYATERLYPEEGVLKGELLGRLKLKDGGLNLVESKTIYMAKKPVQLPGYYFVDTKLDITSHNEDYTIVEQYERSEGRHHLGH
chain 2: MGHHHHHHHHHHSSGHIDDDDKHMLEGNGEYAWYYEGRNGWWQYDERTSRELEDAFSKGKKNTEMLIAGFLYVADLENMVQYRRNEHGRRRKIKRDIIDIPKKGVAGLRLEFSTGHGTGSTGSGSSGTASSESTGSSTIKEFMRFKVRMEGSMNGHEFEIEGEGEGRPYEGTQTAKLKVTKGGPLPFAWDILSPQIMYGSKAYVRHPADIPDYKKLPFPEGFKWERVMNFEDGGLVTVTQDSSLQDGTLICKVKIRGTNFPPDGPVMQKKTMGWEASTEMLYPKDGVLKGHSYQALKLKDGGHYLVEFETIYMAKKPVQLPGDYCVDTKLDITSHNEDYTIVEQYGRSEGRHRLGMDERYK
detection of PARP-1 activation / PARylation in live cell imaging (PARP-1 activation): detected PARP-1 activation

recognizing PARylated PARP-1 (fluorescence) (PARylated PARP-1): performed well | recognizing PARylated PARP-1 (fluorescence) (PARylated PARP-1; listed as macrodomain): worked better
B2: macrodomain from AF1521: macrodomain from AF1521 fused to ddGFP-A/B, recombinant ARBD-ddGFP pair (protein, listed as Archaeoglobus fulgidus)
chain: MERRTLIMEVLFEAKVGDITLKLAQGDITQYPAKAIVNAANKRLEHGGGVAYAIAKACAGDAGLYTEISKKAMREQFGRDYIDHGEVVVTPAMNLEERGIKYVFHTVGPICSGMWSEELKEKLYKAFLGPLEKAEEMGVESIAFPAVSAGIYGCDLEKVVETFLEAVKNFKGSAVKEVALVIYDRKSAEVALKVFERSL

recognizing PARylated PARP-1 (fluorescence) (PARylated PARP-1): able to detect PARylation in vitro
B3: WWE-macrodomain combination sensor: ddGFP sensor pair combining WWE domain from RNF146 and macrodomain from AF1521 (protein)
chain 1: MGNGEYAWYYEGRNGWWQYDERTSRELEDAFSKGKKNTEMLIAGFLYVADLENMVQYRRNEHGRRRKIKRDIIDIPKKGVAGLR
chain 2: B2 chain
modifications: left off: small tags and cut ends
notes: ddGFP sensor pair combining WWE domain from RNF146 and macrodomain from AF1521
detection of PARP-1 activation / PARylation in live cell imaging (PARP-1 activation): failed to recognize PARylation in cells
